Test results as given in publication PMC12440821, “ACAD10 and ACAD11 enable mammalian 4-hydroxy acid lipid catabolism” (Nature Structural & Molecular Biology, 2025).

Experiments:
[1] = molecular target: the molecule itself; assay: cryo-EM structure; single-particle cryo-EM of ACAD11 K* incubated with 100 uM 4-HV-CoA; 50 mM HEPES, 50 mM NaCl, 2% glycerol, 50 uM FAD, pH 7.5; D2 symmetry imposed; 2.6 A
[2] = molecular target: the molecule itself; assay: cryo-EM structure; single-particle cryo-EM of ACAD11 A* incubated with 100 uM 4-PV-CoA; 50 mM HEPES, 50 mM NaCl, 2% glycerol, 50 uM FAD, pH 7.5; D2 symmetry imposed; 3.6 A

Row | Protein | stoichiometry N [1] | stoichiometry N [2]
1 | ACAD11 K* mutant (kinase-inactive mouse acyl-CoA dehydrogenase 11) (enzyme, UniProt Q80XL6 1-779, looked up, catalytic aspartate of the kinase domain replaced with alanine; only the ACAD domains were resolved in the map; Cloned in pE-SUMOstar with a 5' SUMO tag; tag removed with Ulp1; Sample held FAD and 100 uM 4-HV-CoA; also called kinase-dead mutant; source: E. coli B21-CodonPlus (DE3)RIPL, purified (Ni-NTA, cation exchange, size-exclusion chromatography); not shown: SUMO, N-terminal, cleaved) METDVTSDTVEVLPQHKFDLRSLEAYLNQHLPGFGSDSRAVLTVTQYRSGQSNPTFFLQKGSQAYVLRKKPPGSLLPKAHKIDREFKIQKALFSIGFPVAKPLLYCRDASVIGTEFYVMEHVQGRIFRDFSIPGVSSAERAAIYVSVAETLAWLHSLDIRSLKLDKYGTGVGYCKRQVSTWTKQYQASAHQSIPAMDQLSTWLMKNLPDSDSEECLVHGAFKLDNIVFHPKECRVIAVLDWELSTFGHPLTDLAHLSLFYYWPRTLPMINRGSHIPENTGIPLMEELISIYCHRRGIDPNLPNWNFFMALSFFKLAGISQGVYRRYLMGNNSSEDSFLTANTVQPLAETGLQLSKRTLRTTPPQADAKSQLFAQSRRGQEVLTRVKQFMKQHVFPAEKEVAEYYAQSGNSAEKWGHPLVIEKLKEMAKAEGLWNLFLPAVSGLSQVDYALIAEETGKCFFAPDVFNCQAPDTGNMEVLHLYGSEQQKKQWLEPLLRGDITSVFCMTEPNVSSSDATNIECTIQRDGGGYIVNGKKWWSSGAGNPKCKIAIVLGRTESPSASRHRQHSMILVPMDTPGVELIRPLSVFGYMDNMHGGHWEVHFNHVRVPASNLILGEGRGFEISQGRLGPGRIHHCMRTVGLAERILQIMCDRAVQREAFKKKLYEHEVVAHWIAKSRIAIEEIRLLTLKAAHSIDTLGSASARKEIAMIKVAAPKAVCKIADWAIQVHGGAGVSQDYPLANMYAIIRTLRLADGPDEVHLSAIAKMELQDQARRLTARM | 4 | –
2 | ACAD11 A* mutant (ACAD-inactive mouse acyl-CoA dehydrogenase 11) (enzyme, UniProt Q80XL6 1-779, looked up, catalytic aspartate of the ACAD domain replaced with asparagine; kinase and ACAD domains both resolved; Cloned in pE-SUMOstar with a 5' SUMO tag; tag removed with Ulp1; Sample held FAD and 100 uM 4-PV-CoA; also called ACAD-dead mutant; source: E. coli B21-CodonPlus (DE3)RIPL, purified (Ni-NTA, cation exchange, size-exclusion chromatography); not shown: SUMO, N-terminal, cleaved) METDVTSDTVEVLPQHKFDLRSLEAYLNQHLPGFGSDSRAVLTVTQYRSGQSNPTFFLQKGSQAYVLRKKPPGSLLPKAHKIDREFKIQKALFSIGFPVAKPLLYCRDASVIGTEFYVMEHVQGRIFRDFSIPGVSSAERAAIYVSVAETLAWLHSLDIRSLKLDKYGTGVGYCKRQVSTWTKQYQASAHQSIPAMDQLSTWLMKNLPDSDSEECLVHGDFKLDNIVFHPKECRVIAVLDWELSTFGHPLTDLAHLSLFYYWPRTLPMINRGSHIPENTGIPLMEELISIYCHRRGIDPNLPNWNFFMALSFFKLAGISQGVYRRYLMGNNSSEDSFLTANTVQPLAETGLQLSKRTLRTTPPQADAKSQLFAQSRRGQEVLTRVKQFMKQHVFPAEKEVAEYYAQSGNSAEKWGHPLVIEKLKEMAKAEGLWNLFLPAVSGLSQVDYALIAEETGKCFFAPDVFNCQAPDTGNMEVLHLYGSEQQKKQWLEPLLRGDITSVFCMTEPNVSSSDATNIECTIQRDGGGYIVNGKKWWSSGAGNPKCKIAIVLGRTESPSASRHRQHSMILVPMDTPGVELIRPLSVFGYMDNMHGGHWEVHFNHVRVPASNLILGEGRGFEISQGRLGPGRIHHCMRTVGLAERILQIMCDRAVQREAFKKKLYEHEVVAHWIAKSRIAIEEIRLLTLKAAHSIDTLGSASARKEIAMIKVAAPKAVCKIADWAIQVHGGAGVSQDYPLANMYAIIRTLRLANGPDEVHLSAIAKMELQDQARRLTARM | – | 4
